Assay results as given in IntAct's records for PubMed 24976139.

B1: Tyrosine-protein phosphatase non-receptor type 1 (Homo sapiens), P18031 (parent)
chain: MEMEKEFEQIDKSGSWAAIYQDIRHEASDFPCRVAKLPKNKNRNRYRDVSPFDHSRIKLHQEDNDYINASLIKMEEAQRSYILTQGPLPNTCGHFWEMVWEQKSRGVVMLNRVMEKGSLKCAQYWPQKEEKEMIFEDTNLKLTLISEDIKSYYTVRQLELENLTTQETREILHFHYTTWPDFGVPESPASFLNFLFKVRESGSLSPEHGPVVVHCSAGIGRSGTFCLADTCLLLMDKRKDPSSVDIKKVLLEMRKFRMGLIQTADQLRFSYLAVIEGAKFIMGDSSVQDQWKELSHEDLEPPPEHIPPPPRPPKRILEPHNGKCREFFPNHQWVKEETQEDKDCPIKEEKGSPLNAAPYGIESMSQDTEVRSRVVGGSLRGAQAASPAKGEPSLPEKDEDHALSYWKPFLVNMCVATVLTAGAYLCYRFLFNSNT
partner: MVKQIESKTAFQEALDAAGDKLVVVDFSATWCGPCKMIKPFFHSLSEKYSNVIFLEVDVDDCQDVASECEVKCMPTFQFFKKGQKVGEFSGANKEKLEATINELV

Variants of: B1
Details: with thio_human TXN

effect of a mutation on the interaction | Variant
disrupting interaction | C215A;S216A
